Measurements reported in FireProtDB (doi:10.1016/0022-2836(92)90907-2).

B1: Ribonuclease, P00648 (parent)
chain: MMKMEGIALKKRLSWISVCLLVLVSAAGMLFSTAAKTETSSHKAHTEAQVINTFDGVADYLQTYHKLPDNYITKSEAQALGWVASKGNLADVAPGKSIGGDIFSNREGKLPGKSGRTWREADINYTSGFRNSDRILYSSDWLIYKTTDHYQTFTKIR

Variants of: B1
Settings: Bacillus amyloliquefaciens; pH 6.3; 25 °C; Urea; Fluorescence; MES 450 mM; reversible: yes; structure 1BNI; whole UniProt chain shown

| Variant | ddG of mutation (higher = less stable) | denaturant m value | denaturant midpoint (higher = more stable) | unfolding free energy |
| --- | --- | --- | --- | --- |
| A79C | 1.85 kcal/mol | 1.71 kcal/mol/M | 4 M | 6.98 kcal/mol |
| A79D | 0.41 kcal/mol | 1.99 kcal/mol/M | 4.2 M | 8.42 kcal/mol |
| A79E | -0.13 kcal/mol | 2.08 kcal/mol/M | 4.3 M | 8.96 kcal/mol |
| A79F | 0.43 kcal/mol | 1.98 kcal/mol/M | 4.2 M | 8.4 kcal/mol |
| A79G | 0.65 kcal/mol | 1.98 kcal/mol/M | 4.1 M | 8.18 kcal/mol |
| A79H | 0.7 kcal/mol | 1.94 kcal/mol/M | 4.1 M | 8.13 kcal/mol |
| A79K | 0.1 kcal/mol | 1.94 kcal/mol/M | 4.5 M | 8.73 kcal/mol |
| A79L | -0.08 kcal/mol | 2.02 kcal/mol/M | 4.4 M | 8.91 kcal/mol |
| A79M | 0.08 kcal/mol | 1.97 kcal/mol/M | 4.4 M | 8.75 kcal/mol |
| A79N | 0.33 kcal/mol | 2 kcal/mol/M | 4.2 M | 8.5 kcal/mol |
| A79P | 4.12 kcal/mol | 1.89 kcal/mol/M | 2.4 M | 4.71 kcal/mol |
| A79Q | 0.35 kcal/mol | 1.95 kcal/mol/M | 4.3 M | 8.48 kcal/mol |
| A79R | 0.2 kcal/mol | 1.91 kcal/mol/M | 4.5 M | 8.63 kcal/mol |
| A79S | 0.16 kcal/mol | 1.98 kcal/mol/M | 4.3 M | 8.67 kcal/mol |
| A79V | 0.34 kcal/mol | 2.05 kcal/mol/M | 4.1 M | 8.49 kcal/mol |
| A79W | 1.14 kcal/mol | 1.88 kcal/mol/M | 4 M | 7.69 kcal/mol |
| A79Y | 0.7 kcal/mol | 1.95 kcal/mol/M | 4.1 M | 8.13 kcal/mol |
